Assay results as given in patent US6653444 (Dana-Farber, dated 2003).

B1: human B7 B cell activation antigen (ligand)
chain: VIHVTKEVKEVATLSCGHNVSVEELAQTRIYWQKEKKMVLTMMSGDMNIWPEYKNRTIFDITNNLSIVILALRPSDEGTYECVVLKYEKDAFKREHLAEVTLSVKADFPTPSISDFEIPTSNIRRIICSTSGGFPEPHLSWLENGEELNAINTTVSQDPETELYAVSSKLDFNMTTNHSFMCLIKYGHLRVNQTFNWNTTKQEHFPDNLLPSWAITLISVNGIFVICCLTYCFAPRCRERRRNERLRRESVRPV
B2: murine B7 (ligand)
chain: VDEQLSKSVKDKVLLPCRYNSPHEDESEDRIYWQKHDKVVLSVIAGKLKVWPEYKNRTLYDNTTYSLIILGLVLSDRGTYSCVVQKKERGTYGVKHLALVKLSIKADFSTPNITESGNPSADTKRITCFASGGFPKPRFSWLENGRELPGINTTISQDPESELYTISSQLDFNTTRNHTIKCLIKYGDAHVSEDFTWEKPPEDPPDSKNTLVLFGAGFGAVITVVVIVVIIKCFCKHRSCFRRNEASRETNNSLTFGPEEALAEQTVFL

Molecular target: CD28 (human, UniProt P10747 19-220)
Sequence (P10747 19-220): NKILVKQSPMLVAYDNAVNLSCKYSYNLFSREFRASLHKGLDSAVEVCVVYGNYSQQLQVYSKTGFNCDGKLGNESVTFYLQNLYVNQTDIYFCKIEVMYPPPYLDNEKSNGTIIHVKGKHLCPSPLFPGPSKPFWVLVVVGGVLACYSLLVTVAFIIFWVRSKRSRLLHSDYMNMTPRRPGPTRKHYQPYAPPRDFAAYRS
Test: cell-based or functional assay

| Binder | IL-2 secretion with CHO-B7 relative to anti-CD28 mAb, PMA-stimulated CD28+ T cells [%] | fold enhancement of proliferation of PMA-treated human CD28+ T cells by fixed COS-hB7 cells [fold] | fold increase in proliferation of PMA-treated human CD28+ T cells by fixed CHO-hB7 cells [fold] | proliferation by CHO-B7 relative to anti-CD28 mAb [% less] | fold enhancement of proliferation of PMA-treated human CD28+ T cells by fixed COS-mB7 cells [fold] |
| --- | --- | --- | --- | --- | --- |
| B1 | ~45 | 30 | 51 | ~28 | – |
| B2 | – | – | – | – | 29 |
